Results as given in US20160184454A1, “RAB7L1 INTERACTS WITH LRRK2 TO MODIFY INTRANEURONAL PROTEIN SORTING AND PARKINSON'S DISEASE RISK” (THE TRUSTEES OF COLUMBIA UNIVERSITY IN THE CITY OF NEW YORK, priority 2013, published 2016).

How the values were obtained:
[1] = tested on: rat primary cortical neurons; experiment: Neurite length assay in transfected primary cortical neuron cultures; assay type: cell-based
From the text: As 5 candidate genes are present within the PARK16 locus (SLC45A3, NUCKS, RAB7L1, SLC41A1, and PM20D1), each of the genes were experimentally screened for a functional interaction with LRRK2 (FIG. 2A). A previously-described primary rat neuron in vitro culture model was used, in which transient expression of familial PD-associated LRRK2 G2019S or R1441C mutant alleles leads to a marked reduction in neurite process length (MacLeod et al., 2006). […] RAB7L1 is a small cytosolic GTPase, structurally distinct from RAB7 despite its name (also known as RAB29) (Shimizu et al., 1997). […] But the function of RAB7L1 in CNS neurons remains unknown. Orthologues of RAB7L1 in other organisms, including C. elegans Glo-1 and Drosophila melanogaster Lighloid, have been implicated in trafficking to lysosome-related organelles (Hermann et al., 2005) and in the regulation of neurite process length (Grill et al., 2007), reminiscent of LRRK2 mutant phenotypes (MacLeod et al., 2006). Thus this gene was of particular interest.
Sprague-Dawley rat or mouse PI primary dissociated cortical cultures were prepared and transfected essentially as described (Xia et al., 1996) with the following modifications: cells were plated at high density, approximately 250,000 cells/cm2, in 24-well plates with 500 ul medium/well. Culture medium used for plating cells was Neurobasal-A supplemented with 2% B-27 and 10% FBS. At 1 day after plating, medium was changed to reduced serum (1% FBS+added antimitotic agents: 70 μM uridine and 25 μM 5-fluorodeoxyuridine) and replaced weekly thereafter; for transfections no DMSO was added to the transfection mixture, cells were not subjected to glycerol shock, and a total of 3 μg plasmid DNA was used per well. Cells were fixed in 4% PFA and immunostained with mouse α-RAB7L1 (Santa Cruz, 1:100), and rabbit monoclonal α-LRRK2 (Michal J. Fox Foundation MJFF4, 1:100), then with appropriate fluorescent secondaries (Jackson, 1:1000-2000). Neurite length and neurite puncta (defined as swellings greater than 2 um in diameter) were counted for at least 20 neurons per condition. Mean puncta number per neuron was normalized to total average neurite length versus wild-type LRRK2 transfected cells. Fluorescent microscopy was performed using a Nikon TE 2000-S microscope and a Zeiss LSM510 Meta confocal microscope. Images were analyzed using Image-Pro Plus (Mediacybernetics) software version 5.1.0.20.

[2] = tested on: primary rat cortical neurons; experiment: MPR sorting / colocalization analysis (Golph4, LAMP2, EEA1) in primary neurons; assay type: cell-based; conditions: in the context of LRRK2 G2019S expression
From the text: A cellular role for the LRRK2-RAB7L1 pathway was investigated. Prior studies have broadly implicated both of these gene products in intracellular sorting (Sakaguchi-Nakashima et al., 2007; Spano et al., 2011). Expression of the LRRK2 G2019S clinical mutation in rat primary neurons induced lysosomal swelling, as quantified by immunostaining for the lyosomal marker LAMP2 or using the lysosomotropic dye Lysotracker, consistent with prior work and other studies (Dodson et al., 2012; MacLeod et al., 2006; Stafa et al., 2012) (FIG. 6A). In addition to lysosomal enlargement, there was significant reduction in lysosomal accumulation of the cation-independent mannose 6-phosphate receptor (MPR) in terms of the fraction of LAMP2-positive structures stained with MPR. As MPR is required also for the recruitment of lysosomal hydrolases, its deficiency is predicted to lead to functional lysosomal deficits.
MPR is typically recycled between the endolysosome compartment and the Golgi apparatus by the retromer complex (Arighi et al., 2004; Bonifacino and Hurley, 2008; Seaman, 2009; St. George-Hyslop et al., 2009). […]
Primary rat cortical neurons were cultured on glass coverslips, transfected, and fixed as previously described in this methods section. […] Images were analysed using NIH ImageJ software version 1.45.

[3] = target: T1, LRRK2 (Homo sapiens, UniProt Q5S007); experiment: Co-immunoprecipitation of LRRK2 and RAB7L1 from transfected HEK293T cells; assay type: binding; conditions: HEK293T lysates, 3×Flag-LRRK2 and GFP-RAB7L1, 48 hrs
T1 construct: Plasmids encoding full-length human LRRK2 (wild-type, G2019S, K1906M) tagged with 3×FLAG at the N-terminus were used; expressed in transfected cells; host or cells: HEK293T
Method: Next more direct evidence of a physical interaction between LRRK2 and RAB7L1 was sought and thus co-immunoprecipitation studies were performed. Epitope-tagged forms of LRRK2 and RAB7L1 (3×Flag-LRRK2 and GFP-RAB7L1) were co-transfected into HEK293T cells, and after 48 hrs, cell lysates were immunoprecipitated with an anti-Flag antibody and then probed for RAB7L1. […] Similarly, immunoprecipitation of RAB7L1 with an antibody to the GFP tag co-precipitated LRRK2 only in the presence of RAB7L1-GFP (FIG. 3B). To probe for an interaction between LRRK2 and RAB7L1 in a more physiological context, RAB7L1 protein was examined in brain lysates from transgenic mice that harbor human wild-type LRRK2 or a familial PD mutant form of LRRK2, R1441C, within a large bacterial artificial chromosome (BAC) construct. Transgenic LRRK2 is broadly expressed throughout the CNS of these mice, although at relatively low levels (FIG. 10A). Brain tissue lysates were immunoprecipitated for LRRK2 protein with a rabbit monoclonal antibody.
For cultured cells, HEK293T cells transfected for 48 hours were lysed with lysis buffer containing 0.5% Triton-X. 1 mM EDTA and protease inhibitor cocktail (Sigma). The lysates were rotated at 4° C. for 1 hr followed by centrifugation at 20,000 g for 5 min. […]

[4] = target: T2, human wild-type LRRK2 (BAC transgene, mouse brain) (human, UniProt Q5S007 1-2527); experiment: immunoprecipitation of LRRK2 with a rabbit monoclonal antibody from transgenic mouse brain lysates, Western blot for RAB7L1
T2 construct: Untagged human LRRK2 expressed from a BAC construct in transgenic mice; It was immunoprecipitated from whole brain lysate with an anti-LRRK2 antibody; The lysate also holds endogenous mouse LRRK2; also called LRRK2 wild type transgenic (WT); LRRK2-WT
T2 sequence (Q5S007 whole entry R50H): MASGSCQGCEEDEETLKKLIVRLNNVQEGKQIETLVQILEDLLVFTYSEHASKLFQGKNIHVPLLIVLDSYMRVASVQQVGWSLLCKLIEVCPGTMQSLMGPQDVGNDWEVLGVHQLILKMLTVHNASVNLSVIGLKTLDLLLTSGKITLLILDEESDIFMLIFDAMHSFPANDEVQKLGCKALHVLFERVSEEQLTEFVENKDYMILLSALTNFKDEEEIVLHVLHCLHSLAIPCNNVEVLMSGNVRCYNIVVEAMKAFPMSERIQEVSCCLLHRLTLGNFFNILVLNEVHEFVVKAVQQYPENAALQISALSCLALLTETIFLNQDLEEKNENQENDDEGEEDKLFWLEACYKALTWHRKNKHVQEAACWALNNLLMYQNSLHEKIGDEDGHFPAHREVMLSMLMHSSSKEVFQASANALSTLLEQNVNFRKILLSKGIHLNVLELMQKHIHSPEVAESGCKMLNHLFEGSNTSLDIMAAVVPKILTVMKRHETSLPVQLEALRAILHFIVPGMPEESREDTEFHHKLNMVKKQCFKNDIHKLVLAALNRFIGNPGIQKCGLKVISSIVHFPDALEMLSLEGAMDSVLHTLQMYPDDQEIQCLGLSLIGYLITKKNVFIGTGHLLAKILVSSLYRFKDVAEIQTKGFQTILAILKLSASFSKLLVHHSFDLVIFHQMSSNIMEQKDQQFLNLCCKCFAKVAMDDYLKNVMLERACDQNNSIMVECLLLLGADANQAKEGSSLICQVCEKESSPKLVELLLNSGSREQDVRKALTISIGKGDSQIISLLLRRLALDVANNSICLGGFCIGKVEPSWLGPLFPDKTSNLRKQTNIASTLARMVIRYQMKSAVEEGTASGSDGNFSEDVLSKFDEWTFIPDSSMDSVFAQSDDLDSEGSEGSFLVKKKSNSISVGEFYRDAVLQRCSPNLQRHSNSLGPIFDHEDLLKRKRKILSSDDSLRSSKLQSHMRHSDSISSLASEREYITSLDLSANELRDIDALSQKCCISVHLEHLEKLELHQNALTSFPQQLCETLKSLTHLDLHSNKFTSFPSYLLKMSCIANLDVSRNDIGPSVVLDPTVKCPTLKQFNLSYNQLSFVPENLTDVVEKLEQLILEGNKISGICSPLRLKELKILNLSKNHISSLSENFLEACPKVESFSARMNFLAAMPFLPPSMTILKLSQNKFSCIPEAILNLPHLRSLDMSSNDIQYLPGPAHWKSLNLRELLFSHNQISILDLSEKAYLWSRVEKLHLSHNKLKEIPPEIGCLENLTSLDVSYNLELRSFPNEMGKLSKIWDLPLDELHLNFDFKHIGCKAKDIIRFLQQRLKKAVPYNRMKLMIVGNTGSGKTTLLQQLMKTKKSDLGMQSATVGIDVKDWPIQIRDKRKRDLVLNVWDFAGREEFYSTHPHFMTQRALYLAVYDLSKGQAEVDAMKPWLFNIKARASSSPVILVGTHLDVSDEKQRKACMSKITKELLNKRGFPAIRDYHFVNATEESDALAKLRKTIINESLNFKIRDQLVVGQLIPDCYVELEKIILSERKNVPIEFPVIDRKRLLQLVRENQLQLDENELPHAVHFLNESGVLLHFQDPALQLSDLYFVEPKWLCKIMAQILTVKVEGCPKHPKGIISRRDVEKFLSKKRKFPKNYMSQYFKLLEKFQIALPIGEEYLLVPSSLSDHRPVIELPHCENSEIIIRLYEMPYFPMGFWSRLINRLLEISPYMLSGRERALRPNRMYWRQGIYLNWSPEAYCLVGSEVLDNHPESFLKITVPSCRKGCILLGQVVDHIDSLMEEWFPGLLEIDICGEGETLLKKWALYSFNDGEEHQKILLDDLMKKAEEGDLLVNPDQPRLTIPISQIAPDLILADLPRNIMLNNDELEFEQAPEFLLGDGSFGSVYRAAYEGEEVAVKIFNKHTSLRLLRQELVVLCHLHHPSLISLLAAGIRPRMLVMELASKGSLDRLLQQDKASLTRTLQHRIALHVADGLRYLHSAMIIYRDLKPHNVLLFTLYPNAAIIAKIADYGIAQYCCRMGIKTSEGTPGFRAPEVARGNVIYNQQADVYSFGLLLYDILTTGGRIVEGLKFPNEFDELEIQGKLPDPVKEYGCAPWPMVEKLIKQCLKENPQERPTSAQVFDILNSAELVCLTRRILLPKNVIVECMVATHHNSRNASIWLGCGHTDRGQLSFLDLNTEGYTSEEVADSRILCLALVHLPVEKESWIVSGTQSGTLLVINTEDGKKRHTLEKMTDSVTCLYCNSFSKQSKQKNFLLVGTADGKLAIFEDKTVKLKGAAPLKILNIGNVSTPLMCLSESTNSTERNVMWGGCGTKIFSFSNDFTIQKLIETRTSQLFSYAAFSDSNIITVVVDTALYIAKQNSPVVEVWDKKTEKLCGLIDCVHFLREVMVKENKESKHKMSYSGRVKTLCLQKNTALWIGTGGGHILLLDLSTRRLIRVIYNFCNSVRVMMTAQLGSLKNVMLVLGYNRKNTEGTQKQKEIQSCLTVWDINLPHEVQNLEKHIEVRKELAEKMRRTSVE

co-immunoprecipitation with LRRK2 [3]: effectively co-precipitated
binding result [4]: binds
B1: RAB7L1 protein in mouse brain lysate (endogenous) (enzyme, UniProt Q91YQ1 1-204, looked up)
chain: MGSRDHLFKVLVVGDAAVGKTSLVQRYSQDSFSKHYKSTVGVDFALKVLQWSDSEMVRLQLWDIAGQERFTSMTRLYYRDASACVIMFDVTNATTFSNSQRWKQDLDSKLTLPSGEPVPCLLLANKSDLSPWAVSRDQIDRFSKENGFTGWTETSVKENKNINEAMRVLVEKMMNNSREDVMSLSTQGNYINLQAKPSSGWTCC
notes: Detected by Western blot (Santa Cruz sc-81924) after LRRK2 immunoprecipitation
LRRK2 mutation-induced neurite length phenotype ([1]; co-transfection with LRRK2 G2019S (0.5 μg/well), test vector 1 μg/well): significantly suppressed the LRRK2 mutation-induced neurite length phenotype
reduced neurite length ([1]; in the context of VPS35 knockdown by shRNA): not rescued
neurite length ([1]; in the context of overexpression of wild-type LRRK2): did not modify neurite length
lysosomal phenotypes (swollen lysosomes, reduced lysosomal MPR) [2]: suppressed the lysosomal phenotypes
